According to PMC4344121:
Where no end group is shown, it is not given here. The star is where a group is joined. lipoyl = O=C(CCCC[C@@H]1CCSS1)*

Molecular target: T1, N-terminally truncated human SIRT4 (33-314) (human) (UniProt Q9Y6E7)
T1 sequence: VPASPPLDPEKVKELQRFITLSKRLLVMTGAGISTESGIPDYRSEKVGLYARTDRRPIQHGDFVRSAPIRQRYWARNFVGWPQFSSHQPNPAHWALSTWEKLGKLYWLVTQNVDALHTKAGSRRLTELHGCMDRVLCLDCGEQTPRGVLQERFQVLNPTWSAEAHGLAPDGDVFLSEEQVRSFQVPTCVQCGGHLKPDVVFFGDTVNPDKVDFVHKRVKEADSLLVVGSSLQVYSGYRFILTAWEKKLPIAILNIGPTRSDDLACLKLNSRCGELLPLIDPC

EIETDK(lipoyl)ATIGW [DLAT K259 Lipoyl peptide] was tested, and the Km of delipoylation, steady-state kinetics (HPLC-based assay, SIRT4 5 μM) was 239 µM.
